Values quoted from earlier work in publication PMC2702134.

Target: Glu50 (UniProt position 50, LEWIGEINPDS)

In the case of “Catalytic antibody 34E4 (Kemp eliminase)”, the pKa is listed as 6.4.
